Biological target: Notch-1 (endogenous; p300 or p120 not told) (human (endogenous in HeLa and BxPC3)) (UniProt P46531)
Test: co-IP; HA-tagged c-Src wild type, Y416F or Y527F transiently transfected in HeLa; whole-cell lysate, IP with anti-Notch-1, blot with anti-HA and anti-Notch-1

## HA-tagged c-Src Y416F (kinase dead) (enzyme)
  fold reduction of binding against wild type c-Src: > 3 fold

Reference: article PMC3316571
